Experimental findings from US11278600B2, “Human alpha-galactosidase variants” (Codexis, Inc., priority 2014, dated 2022) are described below.

What all share (type): biochemical
Data set [1] can be described thus: HTP-analysis of supernatants pretreated with acid (MUGal hydrolysis). The following applies: challenge at pH 4.0; activity of the variant/activity of Rd3BB (SEQ ID NO: 13); yeast culture supernatant. In a few lines:
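Fluorescence of MUGal hydrolysis (Ex. 355 nm, Em. 448 nm) is read after sodium carbonate quench. The enzyme source is INVSc1 yeast culture supernatant, first exposed to pH 3.3-4.3 McIlvaine buffer at 37° C. for 1-3 h, then reacted at pH 4.8 for 30-180 minutes.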

A short description of data set [2]: HTP-analysis of supernatants pretreated with bovine serum (MUGal hydrolysis). The following applies: activity of the variant/activity of Rd3BB (SEQ ID NO: 13), yeast culture supernatant. In a few lines: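 Yeast INVSc1 culture supernatants containing secreted GLA variants were mixed with bovine serum (20:80) and held 1 h at 37° C. Serum-treated samples then reacted with MUGal (4 mM stock) in citrate/McIlvaine buffer (pH 4.3/4.8) for 180 min at 37° C., were quenched with sodium carbonate, and read by fluorescence (Ex 355, Em 448 nm).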

Data set [3] in a line: HTP-analysis of yeast culture supernatants, no challenge (MUGal hydrolysis). Particulars: activity of the variant/activity of Rd3BB (SEQ ID NO: 13), yeast culture supernatant. Summed up: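 Activity read as 4-methylumbelliferyl α-D-galactopyranoside hydrolysis: fluorescence (355/448 nm) after sodium carbonate stop, following 30-180 min at 37° C with 2 mM MUGal stock at pH 4.6–4.8. Enzyme source is unchallenged culture supernatant of INVSc1 yeast expressing GLA variants, grown 66-84 h at 30° C.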

Data set [4] is described as follows: HTP-analysis of supernatants pretreated with base (MUGal hydrolysis). The following applies: challenge at pH 8.2; activity of the variant/activity of Rd3BB (SEQ ID NO: 13); yeast culture supernatant. In a few lines:
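Fluorescence of released 4-MU (Ex 355 nm, Em 448 nm) after carbonate quench reports MUGal hydrolysis by GLA variants secreted from INVSc1 yeast. Before the acidic (pH 4.3-4.8) 30-180 min reaction at 37° C, supernatants had been pre-incubated at pH 7.0-9.7 for 1-18 h at 37° C.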

B1: 345 (protein)
chain: LDNGLARTPTMGWLHWERFMCNLDCQEEPDSCISEKLFMEMAERMVSEGWKDAGYEYLCIDDCWMAPQRDSEGRLQADPQRFPHGIRQLANYVHSIGLKLGIYADVGNKTCAGFPGSFGYYDIDAQTFADWGVDLLKFDGCYCDSLENLADGYKHMSLALNRTGRSIVYSCEWPLYMWPFQKPNYTEIRQYCNHWRNFADIDDSWASIKSILDWTSRNPERIVDVAGPGGWNDPDMLVIGNFGLSWDQQVTQKALWAIMAAPLFMFNDLRHISPQAKALLQDKEVIAINPDPFGKQGYQLRKGDNFEGWERPLFGLAWAVAIINRQEIGGPRSYTIPVASLGEGVACNPACFITQLLPVKRKLGFYNWTSRLKSHINPTGTVLLQLENTMQMSLKDLL
modifications: Synthetic Polypeptide sequence of Variant No. 345 of mature Human GLA
Turning to B1, the “Relative Activity of GLA Variants After Challenge at pH 4.0” value (“Relative Activity … at pH 4.0” below) in data set [1] is “++ (++ = >1.5 to 2.5 relative activity over Rd3BB (SEQ ID NO: 13))”. Moreover, the “Relative Activity of GLA Variants After Challenge with Serum” value (shortened to “Relative Activity … with Serum”) in data set [2] is “+ (+ = 0.5 to 1.5 relative activity over Rd3BB (SEQ ID NO: 13))”. Further, the “Relative Activity of GLA Variants After No Challenge (NC)” value in data set [3] was “+ (+ = 0.5 to 1.5 relative activity over Rd3BB (SEQ ID NO: 13))”. Also, in data set [4], the “Relative Activity of GLA Variants After Challenge at pH 8.2” value (from here on “Relative Activity … at pH 8.2”) is “+++ (+++ = >2.5 relative activity over Rd3BB (SEQ ID NO: 13))”.

B2: 343 (protein)
chain: LDNGLARTPTMGWLHWERFMCNLDCQEEPDSCISEKLFMEMAERMVSEGWKDAGYEYLCIDDCWMAPQRDSEGRLQADPQRFPHGIRQLANYVHSIGLKLGIYADVGNKTCAGFPGSFGYYDIDAQTFADWGVDLLKFDGCYCDSLENLADGYKHMSLALNRTGRSIVYSCEWPLYMWPFQKPNYTEIRQYCNHWRNFADIDDSWASIKSILDWTSRNQERIVDVAGPGGWNDPDMLVIGNFGLSWDQQVTQMALWAIMAAPLFMSNDLRHISPQAKALLQDKDVIAINQDPLGKQGYQLRKGDNFEVWERPLSGLAWAVAIINRQEIGGPRSYTIAVASLGKGVACNPACFITQLLPVKRKLGFYNWSSRLKSHINPTGTVLLQLENTMQMSLKDLL
modifications: Synthetic Polypeptide sequence of Variant No. 343 of mature Human GLA
With B2, the “Relative Activity … at pH 4.0” value in data set [1] was “+ (+ = 0.5 to 1.5 relative activity over Rd3BB (SEQ ID NO: 13))”. In addition, the “Relative Activity … with Serum” value in data set [2] is reported as “+ (+ = 0.5 to 1.5 relative activity over Rd3BB (SEQ ID NO: 13))”. Also, the “Relative Activity of GLA Variants After No Challenge (NC)” value in data set [3] was “+ (+ = 0.5 to 1.5 relative activity over Rd3BB (SEQ ID NO: 13))”. Moreover, the “Relative Activity … at pH 8.2” value in data set [4] was “+ (+ = 0.5 to 1.5 relative activity over Rd3BB (SEQ ID NO: 13))”.

B3: 347 (protein)
chain: LDNGLARTPTMGWLHWERFMCNLDCQEEPDSCISEKLFMEMAERMVSEGWKDAGYEYLCIDDCWMAPQRDSEGRLQADPQRFPHGIRQLANYVHSIGLKLGIYADVGNKTCAGFPGSFGYYDIDAQTFADWGVDLLKFDGCYCDSLENLADGYKHMSLALNRTGRSIVYSCEWPLYMWPFQKPNYTEIRQYCNHWRNFADIDDSWASIKSILDWTSFNQERIVDVAGPGGWNDPDMLVIGNFGLSWNQQVTQMALWAIMAAPLFMSNDLRHISPQAKALLQDKDVIAINQDPLGKQGYQLRQGDNFEVWERPLSGLAWAVAIINRQEIGGPRSYTIPVASLGKGVACNPACFITQLLPVKRKLGFYNWSSRLKSHINPTGTVLLQLENTMQMSLKDLL
modifications: Synthetic Polypeptide sequence of Variant No. 347 of mature Human GLA
With B3, the “Relative Activity … at pH 4.0” value in data set [1] is listed as “− (− = <0.5 relative activity to Rd3BB (SEQ ID NO: 13))”. In data set [2], the “Relative Activity … with Serum” value is recorded as “− (− = <0.5 relative activity to Rd3BB (SEQ ID NO: 13))”. Besides, the “Relative Activity of GLA Variants After No Challenge (NC)” value in data set [3] is listed as “− (− = <0.5 relative activity to Rd3BB (SEQ ID NO: 13))”. For the same molecule, in data set [4], the “Relative Activity … at pH 8.2” value is “− (− = <0.5 relative activity to Rd3BB (SEQ ID NO: 13))”.

B4: 346 (protein)
chain: LDNGLARTPTMGWLHWERFMCNLDCQEEPDSCISEKLFMEMAERMVSEGWKDAGYEYLCIDDCWMAPQRDSEGRLQADPQRFPHGIRQLANYVHSIGLKLGIYADVGNKTCAGFPGSFGYYDIDAQTFADWGVDLLKFDGCYCDSLENLADGYKHMSLALNRTGRSIVYSCEWPLYMWPFQKPNYTEIRQYCNHWRNFADIDDSWASIKSILDWTSRNQERIVDVAGPGGWNDPDMLVIGNFGLSWNQQVTQMALWAIMAAPLFMSNDLRHISPQAKALLQDKDVIAINQDPLGKQGYQLRKGDNFEVWERPLSGLAWAVAIINRQEIGGPRSYTIAVASLGKGVACNPGCFITQLLPVKRQLGFYNWSSRLKSHINPTGTVLLQLENTMQMSLKDLL
modifications: Synthetic Polypeptide sequence of Variant No. 346 of mature Human GLA
Turning to B4, the “Relative Activity … at pH 4.0” value in data set [1] was “+ (+ = 0.5 to 1.5 relative activity over Rd3BB (SEQ ID NO: 13))”. In data set [2], the “Relative Activity … with Serum” value is recorded as “+ (+ = 0.5 to 1.5 relative activity over Rd3BB (SEQ ID NO: 13))”. Also, in data set [3], the “Relative Activity of GLA Variants After No Challenge (NC)” value was “+ (+ = 0.5 to 1.5 relative activity over Rd3BB (SEQ ID NO: 13))”. The “Relative Activity … at pH 8.2” value in data set [4] is on record as “++ (++ = >1.5 to 2.5 relative activity over Rd3BB (SEQ ID NO: 13))”.

B5: 344 (protein)
chain: LDNGLARTPTMGWLHWERFMCNLDCQEEPDSCISEKLFMEMAERMVSEGWKDAGYEYLCIDDCWMAPQRDSEGRLQADPQRFPHGIRQLANYVHSIGLKLGIYADVGNKTCAGFPGSFGYYDIDAQTFADWGVDLLKFDGCYCDSLENLADGYKHMSLALNRTGRSIVYSCEWPLYMWPFQKPNYTEIRQYCNHWRNFADIDDSWASIKSILDWTSRNQERIVDVAGPGGWNDPDMLVIGNFGLSWDQQVTQMALWAIMAAPLFMSNDLRHISPQAKALLQDKDVIAINQDPLGKQGYQLRKGDNFEVWERPLSGLAWAVAIINRQEIGGPRSYTIAVASLGKGVACNPACFITQLLPVKRQLGFYNWTSRLKSHINPTGTVLLQLENTMQMSLKDLL
modifications: Synthetic Polypeptide sequence of Variant No. 344 of mature Human GLA
Consider B5, for which, in data set [1], the “Relative Activity … at pH 4.0” value was “+ (+ = 0.5 to 1.5 relative activity over Rd3BB (SEQ ID NO: 13))”. Moreover, in data set [2], the “Relative Activity … with Serum” value is “++ (++ = >1.5 to 2.5 relative activity over Rd3BB (SEQ ID NO: 13))”. Also, in data set [3], the “Relative Activity of GLA Variants After No Challenge (NC)” value is “+ (+ = 0.5 to 1.5 relative activity over Rd3BB (SEQ ID NO: 13))”. Moreover, the “Relative Activity … at pH 8.2” value in data set [4] is recorded as “+ (+ = 0.5 to 1.5 relative activity over Rd3BB (SEQ ID NO: 13))”.
